Measured values from patent US20040077835A1, “Chemokine receptor modulators, production and use” (published 2004).
The star is where a group is joined. Nonanoyl = CCCCCCCCC(=O)*

Experiments:
[1] = biological target: T1, CCR5 (Homo sapiens (Human), UniProt P51681); test: cell-based or functional assay
[2] = biological target: T1, CCR5; test: cell-based or functional assay; remark: listed apart in the source

Binder	Mean Relative Potency (IC50 in the envelope-mediated cell fusion assay, relative to AOP-RANTES = 100) [1]	Average Infectivity IC50 (cell-free viral infection assay) [2] [nM]	Cell-Fusion Result For Comparison (IC50) [2] [nM]
NNY-PYSSDTTPCCFAYI-A16S-RANTES (17-68) (ligand, ends and bridges not checked) Nonanoyl-PYSSDTTPCCFAYISRPLPRAHIKEYFYTSGKCSNPAVVFVTRKNRQVCANPEKKWVREYINSLEMS	15 relative to AOP-RANTES = 100	–	–
n-Nonanoyl-RANTES (2-68) (ligand, ends and bridges not checked) Nonanoyl-PYSSDTTPCCFAYIARPLPRAHIKEYFYTSGKCSNPAVVFVTRKNRQVCANPEKKWVREYINSLEMS	–	0.024	0.097
AOP-RANTES-K(palmitoyl)-G (ligand, N-terminal aminooxypentane in place of Ser 1; epsilon amino group of the Lys of the C-terminal extension carries glyoxylyl=AoA-ethylene diamine-palmitate ("palmitoyl"), joined by an oxime bond) PYSSDTTPCCFAYIARPLPRAHIKEYFYTSGKCSNPAVVFVTRKNRQVCANPEKKWVREYINSLEMSKG	45 relative to AOP-RANTES = 100	–	–
NNY-…-L19I-RANTES (20-68) (ligand, ends and bridges not checked) Nonanoyl-PYSSDTTPCCFAYIARPIPRAHIKEYFYTSGKCSNPAVVFVTRKNRQVCANPEKKWVREYINSLEMS	13 relative to AOP-RANTES = 100	–	–
Aminooxypentane-RANTES (2-68) (ligand, ends and bridges not checked) {CH3‑(CH2)4‑O‑N:CH‑CO}-PYSSDTTPCCFAYIARPLPRAHIKEYFYTSGKCSNPAVVFVTRKNRQVCANPEKKWVREYINSLEMS	100 relative to AOP-RANTES = 100 (arbitrary value of the control)	0.145	0.48
